Measurements published in patent US20250019425A1 (ADRX, published 2025).
Changes are numbered by the printed parent chain. Like-named read-outs stand apart in the source and are kept apart here. Each block holds one binder with its values, some of them ahead of it.

Assays:
[1] = biological target: T1, biotinylated TTR F87M L110M monomer (Avi_mTTR in vivo biotinylation construct) (human, biotin on the Avi tag (in vivo biotinylation by BirA)); assay: indirect ELISA, biotinylated mTTR on Neutravidin plate, anti-mouse-HRP
T1 construct: also called Biotinyl-Monomer; biotinyl-mTTR

[2] = biological target: TTR F87M L110M (monomeric TTR, mTTR), untagged (human, UniProt P02766 21-147); assay: sandwich ELISA, antibody coated, untagged mTTR, HRP pan-TTR polyclonal detection
[3] = biological target: T1, biotinylated TTR F87M L110M monomer …; assay: biolayer interferometry (Octet RED), antibody on anti-mouse biosensor, biotinylated TTR monomer
[4] = biological target: T2, TTR S112I (dimer TTR, dTTR), untagged (human, UniProt P02766 21-147); assay: sandwich ELISA (Example 11): antibody coated on the plate, untagged TTR titrated, HRP-conjugated pan-TTR polyclonal antibody for detection
[5] = biological target: T3, wild-type TTR (wtTTR), untagged (human, UniProt P02766 21-147); assay: as above
[6] = biological target: T1, biotinylated TTR F87M L110M monomer …; assay: indirect ELISA, biotinyl-mTTR bound to avidin plates
[7] = biological target: T1, biotinylated TTR F87M L110M monomer …; assay: as above; remark: listed apart in the source
[8] = biological target: biotinylated TTR S112I (dimer TTR) (human, UniProt P02766 21-147); assay: indirect ELISA (Examples 4 and 8): biotinylated TTR on Neutravidin plate, antibody titrated, HRP-conjugated anti-species antibody
[9] = biological target: T2, TTR S112I (dimer TTR, dTTR), untagged; assay: sandwich ELISA (Example 11): antibody coated on the plate, untagged TTR titrated, HRP-conjugated pan-TTR polyclonal antibody for detection; remark: listed apart in the source
[10] = biological target: T3, wild-type TTR (wtTTR), untagged; assay: as above; remark: listed apart in the source
[11] = biological target: T2, TTR S112I (dimer TTR, dTTR), untagged; assay: as above; remark: listed apart in the source
[12] = biological target: T3, wild-type TTR (wtTTR), untagged; assay: as above; remark: listed apart in the source
[13] = biological target: T1, biotinylated TTR F87M L110M monomer …; assay: indirect ELISA, biotinylated mTTR on Neutravidin plate, anti-mouse-HRP; indirect ELISA; biotinylated mTTR captured on Neutravidin plate, anti-mouse-HRP detection

B2: murine anti-human monomer TTR antibody Ab3 (antibody, V domains shown)
VH: EVQLQQSGPVLVKPGASVKMSCKASGYTFTDYYMNWVKQSHGKSLEWIGVINPYNGGTSYNQKFKGKATLTVDKSSSTAYMELNSLTSEDSAVYYCARDLTGTGGAMDYWGQGTSVTVSS
VL: QIVLTQSPAILSASPGEKVTMTCRASSSVSYMHWYQQKPGSSPKPWIYATSNLASGVPARFSGSGSGTSYSLTISRVEAEDAATYYCQQWSSNPLTFGAGTKLELK
notes: Murine monoclonal antibody; entries are called Mouse Ab3 HC / LC but hold only the variable domains; also called mAb 3; Antibody 3
EC50 [1]: 14.1 nM
EC50 [2]: 128 nM
Kd [3]: 12.1 nM
binding result [4]: no binding (tested: about 20 µM TTR)
binding result [5]: no binding (tested: about 20 µM TTR)

B3: murine anti-human monomer TTR antibody Ab2 (antibody, V domains shown)
VH: EVKLEQSGGGLVQPGGSMKLSCVASGFTFSNYWMNWVRQSPEKGLEWVAQIRLKSDNYATHYAESVKGRFTISRDDSKSSVYLQMNNLRAEDTGIYYCTGVFTYWGQGTLVTVSA
VL: NIVLTQSPASLAVSLGQRATISCRTSESVDSYGNSFMHWYQQKPGQPPKLLIYLASNLESGVPARFSGSGSRTDFTLTIDPVEADDAATYYCQQNNEDPMYTFGGGTKLEIK
notes: Murine monoclonal antibody; also called mAb 2; Antibody 2
EC50 [6]: 0.16 nM
EC50 [1]: 1.45 nM
EC50 [2]: 98.9 nM
Kd [3]: 6.21 nM

B4: Humanized Ab1 construct (antibody, V domains shown)
VH: QVQLVQSGAEVKKPGASVKVSCKASGYTFTSYWMHWVRQAPGQGLEWIGNIDPSDSETHYAQKFQGRATLTVDKSTSTVYMELSSLRSEDTAVYYCARGRNYWYFDVWGTGTMVTVSS
VL: DIQMTQSPSSLSASVGDRVTITCRASESVDNYGISFMNWFQQKPGKPPKLLIYAASNQGSGVPSRFSGSGSGTDFTLTISSLQPEDFATYYCQQSKEVPWTFGGGTKLEIK
notes: also called humanized antibody Ab1; humanized construct for Ab1
fold weaker than the IgG2 form of Ab1 [7]: ~10 fold
EC50 [6]: 0.55 nM
binding result [8]: no binding (tested: about 60 nM antibody)

The next lines start with the values.

EC50 [1]: 0.45 nM
EC50 [2]: ~12.7 nM
Kd [3]: 11.4 nM
B1: murine anti-human monomer TTR antibody Ab6 (antibody, V domains shown)
VH: QVQLQQSGAELMKPGASVKLSCKATGYTFTGYWIEWVKQRPGHGLEWIGEILPGSGSTNYNEKFKGKATFTADTSSNTAYMQLSSLTTEDSAIYYCARLRGSSYPWYFDYWGQGTTLTVSS
VL: DIQMTQSPASLSVSVGETVTITCRASENIYSNLAWYQQKQGKSPQLLVYAATNLADGVPSRFSGSGSGTQYSLKINSLQSEDFGSYYCQHFWGTPYTFGGGTKLEIK
notes: Murine monoclonal antibody; entries are called Mouse Ab6 HC / LC but hold only the variable domains; also called Antibody 6

EC50 [1]: 0.2 nM
EC50 [2]: ~14.2 nM
Kd [3]: 1.31 nM
binding result [9]: no binding (tested: about 20 µM TTR)
binding result [10]: no binding (tested: about 20 µM TTR)
B5: murine anti-human monomer TTR antibody Ab5 (antibody, V domains shown)
VH: EVQLQQSGAELVKPGASVKLSCTASGFNIKDYYMHWVKQRTEQGLEWIGRIDPEDGETKYAPKFQGKATITADTSSNTAYLQLSSLTSEDTAVYYCALLWLRRGRGYWGQGTTLTVSS
VL: DIQMTQSPSSLSASLGERVSLTCRASQEISGYLSWLQQKPDGTIKRLIYAASTLDSGVPKRFSGSRSGSDYSLTISSLESEDFADYYCLQYASYPPTFGAGTKLELK
notes: Murine monoclonal antibody; entries are called Mouse Ab5 HC / LC but hold only the variable domains; also called mAb 5; Antibody 5

EC50 [2]: ~43.2 nM
binding result [11]: no binding (tested: about 20 µM TTR)
binding result [12]: no binding (tested: about 20 µM TTR)
EC50 [13]: 4.22 nM
B6: murine anti-human monomer TTR antibody Ab7 (antibody, V domains shown)
VH: EVQLQQSGAELVKPGASVKLSCTASGFNIKDYYMHWVKQRTEQGLEWIGRIDPEDGETKYAPKFQGKATITADTSSNTAYLQLSSLTSEDTAVYYCARGKTPFAYWGQGTLVTVSA
VL: B5 VL with S56F, S67F, A92D, P96F, A100S, L106I
notes: Murine monoclonal antibody; entries are called Mouse Ab7 HC / LC but hold only the variable domains; also called Antibody 7
